According to patent US20100167390, “Novel Oligonucleotide and NF-kB Decoy Comprising the Same” (published 2010):

T1: NF-kB p52 (NFKB2) (UniProt Q00653 Q00653:1-454)
T1 sequence: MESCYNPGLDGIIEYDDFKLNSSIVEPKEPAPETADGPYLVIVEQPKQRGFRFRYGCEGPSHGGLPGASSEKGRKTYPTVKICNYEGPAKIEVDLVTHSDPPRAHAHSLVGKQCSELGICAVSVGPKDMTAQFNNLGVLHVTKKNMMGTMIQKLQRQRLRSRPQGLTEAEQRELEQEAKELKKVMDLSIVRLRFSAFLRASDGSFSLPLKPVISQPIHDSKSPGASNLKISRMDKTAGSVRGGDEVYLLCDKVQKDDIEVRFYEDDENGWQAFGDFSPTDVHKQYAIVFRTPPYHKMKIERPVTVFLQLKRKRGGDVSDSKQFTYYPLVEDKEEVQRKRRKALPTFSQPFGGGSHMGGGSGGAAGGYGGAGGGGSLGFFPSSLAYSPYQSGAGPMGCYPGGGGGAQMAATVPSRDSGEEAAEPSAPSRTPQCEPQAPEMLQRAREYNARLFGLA

B1: PSODN8 (dsDNA)
DNA 1: CCCGGGATTTCCCACC
DNA 2: GGTGGGAAATCCCGGG
modifications: PS only within consensus gggatttccc, both strands
B2: SODN8 (dsDNA)
DNA 1: CCCGGGATTTCCCACC
DNA 2: GGTGGGAAATCCCGGG
modifications: PS all bonds, both strands
B3: SODN9 (dsDNA)
DNA 1: GGAGGGATTTCCCGGG
DNA 2: CCCGGGAAATCCCTCC
modifications: PS all bonds, both strands
B4: SODN7 (dsDNA)
DNA 1: CGCGGGATTTCCCAGC
DNA 2: GCTGGGAAATCCCGCG
modifications: PS all bonds, both strands
B5: SODN17 (dsDNA)
DNA 1: CCCTGGGATTTCCCGCC
DNA 2: GGCGGGAAATCCCAGGG
modifications: PS all bonds, both strands
B6: SODN16 (dsDNA)
DNA 1: CGCAGGGATTTCCCGCG
DNA 2: CGCGGGAAATCCCTGCG
modifications: PS all bonds, both strands
B7: Control decoy (conventional NF-kB decoy) (dsDNA)
DNA 1: CCTTGAAGGGATTTCCCTCC
DNA 2: GGAGGGAAATCCCTTCAAGG
modifications: PS all bonds, both strands
B8: PSODN30 (dsDNA)
DNA 1: GGCTGGGATTTCCCGCGG
DNA 2: CCGCGGGAAATCCCAGCC
modifications: PS only within consensus gggatttccc, both strands
B9: PSODN17 (dsDNA)
DNA 1: CCCTGGGATTTCCCGCC
DNA 2: GGCGGGAAATCCCAGGG
modifications: PS only within consensus gggatttccc, both strands
B10: PSODN16 (dsDNA)
DNA 1: CGCAGGGATTTCCCGCG
DNA 2: CGCGGGAAATCCCTGCG
modifications: PS only within consensus gggatttccc, both strands
B11: PSODN7 (dsDNA)
DNA 1: CGCGGGATTTCCCAGC
DNA 2: GCTGGGAAATCCCGCG
modifications: PS only within consensus gggatttccc, both strands
B12: FSODN16 (dsDNA)
DNA 1: CGCAGGGATTTCCCGCG
DNA 2: CGCGGGAAATCCCTGCG
modifications: PS only in flanks and flank-core bonds
B13: SODN6 (dsDNA)
DNA 1: CGAGGGATTTCCCGGC
DNA 2: GCCGGGAAATCCCTCG
modifications: PS all bonds, both strands
B14: SODN83 (dsDNA)
DNA 1: CAAGTAGGGATTTCCCATAC
DNA 2: GTATGGGAAATCCCTACTTG
modifications: PS all bonds, both strands
B15: SODN27 (dsDNA)
DNA 1: CGCAGGGATTTCCCGCGC
DNA 2: GCGCGGGAAATCCCTGCG
modifications: PS all bonds, both strands
B16: SODN91 (dsDNA)
DNA 1: GTAAAATGGGATTTCCCGAG
DNA 2: CTCGGGAAATCCCATTTTAC
modifications: PS all bonds, both strands
B17: PSODN9 (dsDNA)
DNA 1: GGAGGGATTTCCCGGG
DNA 2: CCCGGGAAATCCCTCC
modifications: PS only within consensus gggatttccc, both strands

Tests used:
NF-kB p65 (RelA) [1] = biological target: T2, NF-kB p65 (RelA) (UniProt Q04206 Q04206:1-551); assay: competition; conditions: protein: extract; tags: TPA and CI-stimulated Jurkat nuclear extract, Active Motif TransAM kit
Procedure: The binding capacity of each SODN to NF-κB was evaluated by measuring the remaining free NF-κB after reacting each SODN with NF-κB (p65), using a commercially available kit (TransAM Kit (NF-κB, p65, ACTIVE MOTIF) for measuring NF-κB, and using NF-κB molecules in the Jurkat, TPA and CI-Stimulated, Nuclear Extract (nuclear extract of Jurkat cells stimulated with a phorbol ester (TPA) and a calcium ionophore (CI)). The measurement was performed in accordance with the instructions attached to the kit. The kit was made for quantifying the NF-κB bound to the solid phase by ELISA after adding an NF-κB solution to the wells in which the NF-κB (p65 protein) consensus binding sequence was immobilized and after washing the resultant. By this measurement method, the higher the binding capacity of the oligonucleotide to the NF-κB, the smaller amount of the NF-κB quantified by the ELISA.
More concretely, the above-described measurement was carried out as follows concretely: Each SODN solution was serially diluted with Complete Binding Buffer contained in the kit to prepare test samples (common ratio: 3-fold, 4 times, n=3). To each well, 30 μL of the test sample was added. To the wells of the control and blank, Complete Binding Buffer was added. To each well, 20 μL of the Jurkat, TPA and CI-Stimulated, Nuclear Extract contained in the kit, after dilution with Complete Lysis Buffer to a concentration of 125 μg/mL, was added. To the wells of the blank, Complete Lysis Buffer was added. After incubation for 1 hour with shaking, each well was washed with 1× Wash Buffer contained in the kit, and an anti-NF-κB (p65 protein) antibody was added, followed by incubation for 1 hour. Each well was washed with 1× Wash Buffer, and the Developing Solution contained in the kit was added. After allowing coloration for 10 minutes, the Stop Solution was added to stop the reaction, and the absorbances at 450 nm and 630 nm were measured.
The binding capacities of the partially phosphorothioated oligonucleotides (the bonds between only all of the nucleotides constituting the consensus sequence in both strands are phosphorothioated, hereinafter also referred to as “PSODN”) of SODNs 7, 8, 9, 16, 17 and 30 of the present invention to the NF-κB (p65 protein) were tested in the same manner as described above.

NF-kB p50 (NFKB1) = NF-kB p50 (NFKB1) (UniProt P19838 P19838:1-433); assay: competition; conditions: protein: extract; tags: TPA and CI-stimulated Jurkat nuclear extract, Active Motif
Procedure: (§1) The study was carried out in basically the same manner as in the above-described primary screening. The activities to inhibit the binding of various NF-κB family proteins to the consensus NF-κB binding site were compared under the conditions of common ratio of 3-fold, 6 times, n=2. As a control for comparison, fully phosphorothioated decoy oligonucleotide […] (SEQ ID NO:103) was used. The binding inhibition tests against various NF-κB family proteins were conducted using NF-κB Family TransAM Kit (ACTIVE MOTIF), and using NF-κB molecules in the Jurkat, TPA and CI-Stimulated, Nuclear Extract (ACTIVE MOTIF) for p50, and using NF-κB molecules in the Raji nuclear extract (ACTIVE MOTIF) for Rel-B and p52. As the primary antibodies, anti-NF-κB p50 antibody, anti-NF-κB p52 antibody and anti-Rel-B antibody were used, respectively, and the secondary antibody was HRP-labeled anti-rabbit IgG antibody in all cases.
(§2) More concretely, the above-described measurements were carried out as follows: Each oligonucleotide solution was serially diluted with Complete Binding Buffer to prepare test samples. Each of the test samples was added to the wells in an amount of 30 μL per well, and Complete Binding Buffer was added to the wells of the control and blank. Nuclear extract diluted with Complete Lysis Buffer was added to the wells in an amount of 20 μL per well, and Complete Lysis Buffer was added to the wells of blank. After incubation for 1 hour with shaking, each well was washed with 1× Wash Buffer, and the primary antibody was added, followed by incubation for 1 hour. Each well was washed with 1× Wash Buffer, and the secondary antibody was added, followed by incubation for 1 hour. Each well was washed with 1× Wash Buffer, and the Developing Solution was added. After allowing coloration for 10 minutes, the Stop Solution was added to stop the reaction, and the absorbances at 450 nm and 630 nm were measured.
(§3) The absorbance at 630 nm was subtracted from the absorbance at 450 nm and the mean value of the blanks was further subtracted from the resultant, and the percentage of the mean value of each concentration based on the mean value of the controls was calculated.

NF-kB p52 (NFKB2) = biological target: T1, NF-kB p52 (NFKB2); assay: competition; conditions: protein: extract; tags: Raji nuclear extract, Active Motif
Procedure: as §1, §2, §3

NF-kB p65 (RelA) [2] = biological target: T2, NF-kB p65 (RelA); assay: competition; primary screen 2.01; conditions: protein: extract; tags: TPA and CI-stimulated Jurkat nuclear extract, Active Motif TransAM kit
Procedure: (§4) The measurement was performed in accordance with the instructions attached to the kit. The kit was made for quantifying the NF-κB bound to the solid phase by ELISA after adding an NF-κB solution to the wells in which the NF-κB (p65 protein) consensus binding sequence was immobilized and after washing the resultant. By this measurement method, the higher the binding capacity of the oligonucleotide to the NF-κB, the smaller amount of the NF-κB quantified by the ELISA.
(§5) More concretely, the above-described measurement was carried out as follows concretely: Each SODN solution was serially diluted with Complete Binding Buffer contained in the kit to prepare test samples (common ratio: 3-fold, 4 times, n=3). […] After allowing coloration for 10 minutes, the Stop Solution was added to stop the reaction, and the absorbances at 450 nm and 630 nm were measured.
(§6) The absorbance at 630 nm was subtracted from the absorbance at 450 nm and the mean value of the blanks was further subtracted from the resultant, and the percentage of the mean value of each concentration based on the mean value of the controls was calculated. The concentration at which the calculated value was 50% (i.e., at which the binding was inhibited by 50%) was calculated from the regression lines between two points interposing 50% (an analysis software Graph Pad PRISM 4, GraphPad SOFTWARE was used). […]

NF-kB p65 (RelA) [3] = biological target: T2, NF-kB p65 (RelA); assay: competition; primary screen 1.61; conditions: protein: extract; tags: TPA and CI-stimulated Jurkat nuclear extract, Active Motif TransAM kit
Procedure: as §4, §5, §6

NF-kB p65 (RelA) [4] = biological target: T2, NF-kB p65 (RelA); assay: competition; primary screen 1.31; conditions: protein: extract; tags: TPA and CI-stimulated Jurkat nuclear extract, Active Motif TransAM kit
Procedure: as §4, §5, §6

NF-kB p65 (RelA) [5] = biological target: T2, NF-kB p65 (RelA); assay: competition; primary screen 1.37; conditions: protein: extract; tags: TPA and CI-stimulated Jurkat nuclear extract, Active Motif TransAM kit
Procedure: as §4, §5, §6

NF-kB p65 (RelA) [6] = biological target: T2, NF-kB p65 (RelA); assay: competition; ELISA competition with immobilized consensus site; 4.77 in Table 3-2, 4.93 in Table 4; Table 7 lists 4.93, 4.30, 3.24 in PSODN, FSODN, ODN columns; conditions: protein: extract; tags: TPA and CI-stimulated Jurkat nuclear extract, Active Motif TransAM kit
NF-kB p65 (RelA) [7] = biological target: T2, NF-kB p65 (RelA); assay: competition; conditions: protein: extract; tags: TPA and CI-stimulated Jurkat nuclear extract, Active Motif TransAM kit; remark: listed apart in the source
Procedure: To study the influence by the phosphorothioation site in the oligonucleotide sequence, decoy oligonucleotides (FSODN) in which only the flanking sequences were phosphorothioated and decoy oligonucleotides (ODN) without phosphorothioation having the same sequences, respectively, were synthesized. The binding inhibition activities were compared under the conditions of common ratio of 3-fold, 6 times, n=2. The binding inhibition tests against NF-κB p65 protein was carried out using NF-κB, p65 TransAM Kit (produced by ACTIVE MOTIF), and using NF-κB protein molecules in the Jurkat, TPA and CI-Stimulated, Nuclear
Extract (produced by ACTIVE MOTIF). The testing method was the same as in the above-described Example 5. The term “only the flanking sequences were phosphorothioated” means that the bonds in the flanking sequences and the bonds between the respective flanking sequences and the core were phosphorothioated. For example, as for Sequence 7, it is CsGsCs[…]sAsGsC. The values for PSODNs are those obtained in the secondary screening (above-described Table 4).

NF-kB p65 (RelA) [8] = biological target: T2, NF-kB p65 (RelA); assay: competition; primary screen >5; conditions: protein: extract; tags: TPA and CI-stimulated Jurkat nuclear extract, Active Motif TransAM kit
Procedure: as §4, §5, §6

NF-kB p65 (RelA) [9] = biological target: T2, NF-kB p65 (RelA); assay: competition; primary screen 2.23; conditions: protein: extract; tags: TPA and CI-stimulated Jurkat nuclear extract, Active Motif TransAM kit
Procedure: as §4, §5, §6

NF-kB p65 (RelA) [10] = biological target: T2, NF-kB p65 (RelA); assay: competition; primary screen 3.06; conditions: protein: extract; tags: TPA and CI-stimulated Jurkat nuclear extract, Active Motif TransAM kit
Procedure: as §4, §5, §6

T2 sequence (Q04206 whole entry, one chain of several): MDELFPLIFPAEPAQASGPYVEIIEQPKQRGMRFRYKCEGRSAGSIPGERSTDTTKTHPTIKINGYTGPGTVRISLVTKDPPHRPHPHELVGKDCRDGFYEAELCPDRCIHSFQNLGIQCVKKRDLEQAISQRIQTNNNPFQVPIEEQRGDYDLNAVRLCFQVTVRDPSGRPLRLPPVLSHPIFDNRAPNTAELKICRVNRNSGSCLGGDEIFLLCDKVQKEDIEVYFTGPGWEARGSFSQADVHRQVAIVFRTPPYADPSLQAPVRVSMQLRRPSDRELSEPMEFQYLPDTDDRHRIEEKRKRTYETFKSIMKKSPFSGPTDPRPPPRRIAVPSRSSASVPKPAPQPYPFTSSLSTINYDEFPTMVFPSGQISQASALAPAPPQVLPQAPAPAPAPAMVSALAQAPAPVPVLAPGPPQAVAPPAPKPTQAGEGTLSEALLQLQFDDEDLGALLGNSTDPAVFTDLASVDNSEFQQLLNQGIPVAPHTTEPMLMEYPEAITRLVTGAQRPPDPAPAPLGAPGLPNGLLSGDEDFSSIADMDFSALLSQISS
Chain of NF-kB p50 (NFKB1) (P19838 1-433, one chain of several): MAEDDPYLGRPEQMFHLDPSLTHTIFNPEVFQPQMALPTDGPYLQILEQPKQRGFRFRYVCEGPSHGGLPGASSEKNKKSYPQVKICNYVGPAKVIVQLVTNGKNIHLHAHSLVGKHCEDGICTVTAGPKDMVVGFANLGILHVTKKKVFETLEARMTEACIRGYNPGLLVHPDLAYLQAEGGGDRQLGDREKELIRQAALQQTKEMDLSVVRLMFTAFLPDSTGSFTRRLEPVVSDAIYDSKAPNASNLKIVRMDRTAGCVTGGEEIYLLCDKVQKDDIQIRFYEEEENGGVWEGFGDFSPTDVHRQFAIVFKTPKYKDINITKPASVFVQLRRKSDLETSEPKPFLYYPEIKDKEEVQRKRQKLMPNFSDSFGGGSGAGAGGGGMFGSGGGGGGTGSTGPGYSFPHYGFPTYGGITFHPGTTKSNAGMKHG

Binder | IC50 (NF-kB p65 (RelA) [1]) [nM] | IC50 (NF-kB p50 (NFKB1)) [nM] | IC50 (NF-kB p52 (NFKB2)) [nM] | also measured
B1 | 0.63 | 1.08 | 3.22 | 
B2 |  |  |  | IC50 (NF-kB p65 (RelA) [2]): 2.12 nM
B3 |  |  |  | IC50 (NF-kB p65 (RelA) [2]): 1.88 nM
B4 |  |  |  | IC50 (NF-kB p65 (RelA) [3]): 1.75 nM
B5 |  |  |  | IC50 (NF-kB p65 (RelA) [4]): 1.81 nM
B6 |  |  |  | IC50 (NF-kB p65 (RelA) [5]): 1.98 nM
B7 |  | 8.45 | 8.42 | IC50 (NF-kB p65 (RelA) [6]): 5.26 nM
B8 | 0.48 | 0.69 | 2.11 | 
B9 | 0.48 | 0.91 | 4.29 | 
B10 | 0.41 | 0.8 | 2.37 | 
B11 | 0.54 | 1.02 | 3.01 | 
B12 |  |  |  | IC50 (NF-kB p65 (RelA) [7]): 1.11 nM
B13 |  |  |  | IC50 (NF-kB p65 (RelA) [4]): 2.33 nM
B14 |  |  |  | IC50 (NF-kB p65 (RelA) [8]): 7.33 nM
B15 |  |  |  | IC50 (NF-kB p65 (RelA) [9]): 2.87 nM
B16 |  |  |  | IC50 (NF-kB p65 (RelA) [10]): 2.58 nM
B17 | 0.54 | 0.91 | 1.55 | 
